Read-outs that look alike come from different tables or passages of the source.
Columns and labels:
Human CCR7 WT (human) [1] = biological target: Human CCR7 WT (human) (UniProt P32248)
Human CCR7 WT (human) [2] = biological target: Human CCR7 WT (human) (UniProt P32248); remark: listed apart in the source

UniProt P32248, sequence (P32248 25-378): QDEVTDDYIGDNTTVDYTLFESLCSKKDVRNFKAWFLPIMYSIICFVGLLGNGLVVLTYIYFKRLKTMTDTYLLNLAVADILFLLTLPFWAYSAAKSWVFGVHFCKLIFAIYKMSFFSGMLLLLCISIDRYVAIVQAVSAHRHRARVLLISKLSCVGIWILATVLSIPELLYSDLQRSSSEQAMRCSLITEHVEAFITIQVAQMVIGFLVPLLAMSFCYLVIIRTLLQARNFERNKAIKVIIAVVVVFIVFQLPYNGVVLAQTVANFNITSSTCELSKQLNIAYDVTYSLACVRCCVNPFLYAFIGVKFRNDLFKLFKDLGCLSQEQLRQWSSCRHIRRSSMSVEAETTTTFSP

increase in potency in Gαi signalling (BRET) with 10 μM long C21TP (CCL21 81-111) added (Human CCR7 WT (human) [1]) [fold]	increase in potency in Gαi signalling (BRET) with 10 μM short C21TP (CCL21 89-106) added (Human CCR7 WT (human) [1]) [fold]	potency in Gαi signalling (BRET), against WT CCL19 (Human CCR7 WT (human) [1]) [fold]	increase in potency in Gαi signalling (BRET) with 10 μM long C21TP (CCL21 81-111) added (Human CCR7 WT (human) [2]) [fold]	increase in potency in Gαi signalling (BRET) with 10 μM short C21TP (CCL21 89-106) added (Human CCR7 WT (human) [2]) [fold]	Substance
3	3.5	22			CCL19 K71A K73A R74A R75A (CCL19 AMAAA^71-75) (ligand)
			19.7	16.6	CCL21 1-91 C80A (from UniProt O00585 24-114) (ligand)
